US20250075192

Biological target: T1, Wild type RepD from Staphylococcus aureus, as oriD DNA-RepD adduct
T1 chain: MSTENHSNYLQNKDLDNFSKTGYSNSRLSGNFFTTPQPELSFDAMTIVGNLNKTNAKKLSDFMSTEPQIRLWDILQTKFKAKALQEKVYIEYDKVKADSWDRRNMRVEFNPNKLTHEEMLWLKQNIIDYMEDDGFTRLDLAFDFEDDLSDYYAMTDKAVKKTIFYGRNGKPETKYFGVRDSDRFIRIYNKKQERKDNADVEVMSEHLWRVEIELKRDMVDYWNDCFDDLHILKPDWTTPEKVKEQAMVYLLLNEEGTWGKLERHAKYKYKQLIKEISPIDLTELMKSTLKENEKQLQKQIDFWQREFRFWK

B1: PcrA-DM1, a double cysteine mutant of PcrA, stochastically labeled with a mixture of donor and acceptor fluorophores (protein)
chain: MNFLSEQLLAHLNKEQQEAVRTTEGPLLIMAGAGSGKTRVLTHRIAYLMAEKHVAPWNILAITFTNKAAREMRERVQSLLGGAAEDVWISTFHSMAVRILRRDIDRIGINRNFSILDPTDQLSVMKTILKEKNIDPKKFEPRTILGTISAAKNELLPPEQFAKRASTYYEKVVSDVYQEYQQRLLRCHSLDFDDLIMTTIQLFDRVPDVLHYYQYKFQYIHIDEYQDTNRAQYTLVKKLAERFQNIAAVGDADQSIYRWRGADIQNILSFERDYPNAKVILLEQNYRSTKRILQAANEVIEHNVNRKPKRIWTENPEGKPILYYEAMNEADEAQFVAGRIREAVERGERRYRDFAVLYRTNAQSRVMEEMLLKANIPYQIVGGLKFYDRKEIKDILAYLRVIANPDDDCSLLRIINVPKRGIGASTIDKLVRYAADHELSLFEALGELEMIGLGAKAAGALAAFRSQLEQWTQLQEYVSVTELVEEVLDKSGYREMLKAERTIEAQSRLENLDEFLSVTKHFENVSDDKSLIAFLTDLALISDLDELDGTEQAAEGDAVMLMTLHAAKGLEFPVVFLIGMEEGIFPHNRSLEDDDEMEEERRLAYVGITRAEEELVLTSAQMRTLFGNIQMDPPSRFLNEIPAHLLETASRRQAGASRPAVSRPQASGAVGSWKVGDRANHRKWGIGTVVSVRGGGDDQELDIAFPSPIGIKRLLAKFAPIEKV
  EFRET distribution of dual labeled PcrA-DM1 (smFRET, intramolecular conformation of PcrA): the presence of RepD indeed biases PcrA toward the closed high EFRET conformation
